Assay results: the supplement of paper PMC10567573

B1: CPOX (parent)
chain: HAPTIHFNYRYFEVEEADGNKQWW

Variants of: B1
Test: protein stability index of a GFP-peptide fusion (GPS, HEK-293T) (PSI 1-6); higher = more stable
Details: c terminus: a fixed tail appended
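Further: lentivirally expressed fusions sorted by FACS into six bins by GFP to DsRed ratio, PSI derived from sequencing read proportions per bin multiplied by bin number.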

Protein stability index, by site and new letter:
F7: H 3.35 | D 2.89 | R 2.83 | K 3.03 | T 3.15 | Q 3.21 | E 3.06 | Y 2.48 | W 2.96 | N 2.71 | M 2.26 | I 3.05 | L 2.86 | C 2.35 | P 2.8 | V 2.58 | S 3.02 | A 3.4 | G 3.52
Y11: P 2.98 | F 2.26 | M 2.42 | T 3.23 | R 2.36 | D 3.12 | G 2.62 | I 2.16 | S 2.92 | A 3.23 | L 2.39 | V 2.12 | H 3.13 | K 2.84 | E 3.35 | W 2.79 | C 1.99 | N 2.98
E13: D 2.36 | F 1.63 | N 2.15 | S 1.45 | V 2.52 | K 1.8 | C 2.07 | W 2.31 | G 2.06 | L 1.41 | R 1.56 | A 1.97 | P 1.86 | M 2.22 | Q 2.17 | T 1.67 | I 2.04 | H 2.09 | Y 1.7
V14: P 2.29 | Y 2.23 | H 2.4 | E 3.62 | S 2.44 | A 2.52 | F 2.11 | C 1.82 | K 2.85 | I 2.44 | G 3.15 | T 2.43 | R 2.29 | D 3.06 | M 2.06 | W 2.35 | L 2.37 | Q 2.85 | N 2.42
T4: L 2.31 | Q 2.66 | V 2.45 | I 2.21 | N 2.63 | P 2.7 | Y 1.39 | G 2.57 | F 2.12 | H 2.62 | R 1.8 | M 1.97 | W 2.15 | S 2.8 | K 2.26
R10: D 3.03 | H 2.44 | G 2.42 | E 2.7 | N 2.12 | Y 2.27 | T 2.55 | L 2.25 | M 2.37 | V 2.48 | A 2.56 | I 2.87 | W 1.99 | C 1.5 | Q 2.81 | K 2.47 | P 2.38 | S 2.07 | F 1.77
Y9: A 2.33 | F 2.05 | L 3.03 | N 3.16 | T 2.79 | E 3.5 | P 3.1 | Q 2.82 | K 3.37 | C 1.29 | M 2.6 | H 2.9 | R 3.23 | D 3.46 | V 2.25 | I 2.22 | W 3.32
I5: C 2.4 | Q 2.7 | E 3.55 | P 2.78 | L 2.14 | D 3.41 | S 2.65 | F 2.44 | M 3.15 | N 2.9 | G 2.25 | T 2.78 | H 2.82 | K 2.29 | R 2.64 | W 2.47 | A 2.69 | V 2.43 | Y 1.97
H6: N 2.5 | V 1.61 | T 2.42 | E 2.66 | K 2.36 | C 1.9 | S 2.31 | G 2.77 | F 1.52 | I 2.34 | Q 2.52 | Y 2.68 | D 2.92 | A 2.19 | L 1.82 | R 2.04 | P 1.89 | W 1.59 | M 1.94
N8: P 2.69 | F 1.79 | G 2.36
